Consider one molecule from patent publication US10697970B2, “S100A9 levels for predicting lenalidomide and erythropoietin responsiveness” (H. LEE MOFFITT CANCER CENTER AND RESEARCH INSTITUTE, INC., priority 2015, dated 2020).

Experiment [1] concerns MDS BM-MNC. In words: Pyroptosis flow cytometry panel in MDS BM-MNC incubated with autologous BM plasma. The class given is cell-based, human. Here is the method: For human samples, treated and untreated BM-MNC were incubated overnight in IMDM, supplemented with 10% autologous BM plasma. Subsequently, cells were harvested, washed twice in 1×PBS, and stained with LIVE/DEAD Violet fluorescent reactive dye according to the manufacturer's protocol (Life Technologies). Cells were resuspended in 1×PBS with 2% BSA, and incubated at room temperature for 15 minutes to block non-specific binding. After washing, cells were stained with 30×FAM-FLICA® Caspase-1 and Caspase-3/7 solution at a ratio of 1:30 for 2 hours at 37° C. Cells were washed and stained for cell surface receptors using CD38:PE-CF594, CD33:BV711, CD34:APC (BD Biosciences), and CD71:PE-Cyanine7 (eBioscience). All antibodies were diluted 1:20, and cells were stained for 30 minutes at 4° C. Cells were washed, resuspended in 1× binding buffer, and stained with Annexin-V:Cy5.5 at a dilution of 1:20 for 15 minutes at room temperature (BD Biosciences). 1× binding buffer was added to a final volume of 400 μL. Sample acquisitions were carried out using a BD LSR II flow cytometer and FACSDiva software (BD Biosciences). Calibration of the flow cytometer was carried out prior to each experiment using Rainbow Mid-Range Fluorescent Particles (BD Biosciences). To establish fluorescence compensation settings, ArC Amine Reactive Compensation Beads were used for LIVE/DEAD Violet staining (Life Technologies), and BD CompBead Plus Anti-Mouse Ig κ/Negative Control (BSA) Compensation Plus Particles were used for surface receptor conjugates (BD Biosciences). Data were analyzed using FlowJo 9.7.5 software (FlowJo, LLC, Ashland, Oreg.).
Background: In flow cytometry, cells or beads pass a laser one at a time.

Experiment [2] has as its system MDS BM-MNC. Briefly: qPCR of pyroptosis-related genes in lower-risk MDS BM-MNC treated with CD33-IgG1. The class given is cell-based, human. To be noted: lower-risk MDS BM-MNC (n=5), 24 hours, versus autologous BM plasma alone. As for the experimental part: RNA was isolated from BM-MNC using the RNeasy Mini Kit (Qiagen). cDNA was produced using the iScript cDNA Synthesis Kit (Bio-Rad). Sequences for primers can be found in Table 1. GAPDH mRNA was used for transcript normalization. cDNA was amplified using the iQ SYBR Green Supermix and the CFX96 Real-Time PCR Detection System (Bio-Rad). PCR conditions were as follows: 10 minutes at 95° C., followed by 40 cycles of amplification (15 seconds at 95° C. and 1 minute at 60° C.). Relative gene expression was calculated using the […] method.

B1: CD33-IgG1: S100A9 high-affinity chimeric (CD33-IgG1) decoy receptor (protein)
chain: DPNFWLQVQESVTVQEGLCVLVPCTFFHPIPYYDKNSPVHGYWFREGAIISRDSPVATNKLDQEVQEETQGRFRLLGDPSRNNCSLSIVDARRRDNGSYFFRMERGSTKYSYKSPQLSVHVTDLTHRPKILIPGTLEPGHSKNLTCSVSWACEQGTPPIFSWLSAAPTSLGPRTTHSSVLIITPRPQDHGTNLTCQVKFAGAGVTTERTIQLNVTYVPQNPTTGIFPGDGSGKQETRAGVVH
modifications: left off: a dimerising Fc or GST
Consider B1, for which the “reduction of fraction of pyroptotic cells, maximum lineage-specific change, CD33+ cells” value with MDS BM-MNC [1] (CD33+ immature myeloids, 0.5 μg CD33-IgG1 or 0.1 μM IRAK4 inhibitor, 24 hours) turned out to be 68%. Moreover, in the experiment on MDS BM-MNC [1] (CD34+CD38+ progenitor cells, 0.5 μg CD33-IgG1 or 0.1 μM IRAK4 inhibitor, 24 hours), the “reduction of fraction of pyroptotic cells, maximum lineage-specific change, progenitor cells” value was 23%. The “reduction of fraction of pyroptotic cells, maximum lineage-specific change, stem cells” value in the experiment with MDS BM-MNC [1] (CD34+CD38− stem cells, 0.5 μg CD33-IgG1 or 0.1 μM IRAK4 inhibitor, 24 hours) worked out at 44%. The “reduction of fraction of pyroptotic cells, maximum lineage-specific change, CD71+ cells” value in the experiment with MDS BM-MNC [1] (CD71+ erythroids, 0.5 μg CD33-IgG1 or 0.1 μM IRAK4 inhibitor, 24 hours) was determined as 64%. Further, the “fraction of pyroptotic cells across all lineages studied” value with MDS BM-MNC [1] (MDS BM-MNC (n=4), autologous BM plasma, 0.5 μg CD33-IgG1 or 0.1 μM IRAK4 inhibitor) is recorded as “marked reduction”. In addition, the MDSC fraction result with MDS BM-MNC [1] (short-term treatment with the chimeric receptor) was “significantly reduced”. Also, in the experiment with MDS BM-MNC [2], the CASP3 expression result is given as “markedly reduced”; the “expression of CASP1, IL-1β, IL-18, and NLRP3” value is given as “reduced”.
